According to PMC12377726 (Proceedings of the National Academy of Sciences of the …, 2025):

The binders below were run against eOD-GT8 (engineered outer domain germline-targeting version 8), monomer (HIV-1 gp120 engineered outer domain, …).

Binder | binding result
G001_gp1_V06_VRC01c_76 (antibody, V domains shown) VH: QVHLVQSGAEVKKPGASVKVSCKASEYTFSDYYMHWVRQAPGQGLEWMGWINPNSGGTNYAQKFQGRVTMTRDTSISTAYMELSRLRSDDTAVYYCATRGTGRYSYGSGTFYDYWGQGTLVTVSS VL: not shown | binds
G001_gp1_V06_VRC01c_2021-0016 (antibody, V domains shown) VH: QVQLVQSGAEVKKPGASVTVSCKASGYTFTGYYMHWVRQAPGQGLEWMGWINPTSGGTNYGQKFQGRVTMTRDTSISTAYMELSRLRSDDTAVYYCAITTVTSTWAFDIWGQGTMVTVSS VL: EIVLTQSPGTLSLSPGERATLSCRASQSVSNNYLAWYQQTPGQAPRLLIYGASSRATGIPDRFSGSGSGTDFTLTISRLEPEDFAVYYCQQYETFGQGTKVEIK | binds
G001_gp1_V06_VRC01c_2021-0017 (antibody, V domains shown) VH: not shown VL: EIVLTQSPGTLSLSPGERATLSCRASQSVSSSYLAWYQQKPGQAPRLLIYGASSRATGIPDRFSGSGSGTDFTLTISRLEPEDFAVYYCQQYEFFGPGTKVDIK | binds
G001_gp1_V07_VRC01c_109 (antibody, V domains shown) VH: QVQLVQSGAEVKKPGASVKVSCKTSGYTFTDYYIHWVRQAPGQGLEWMGWINPNSGGTNYAQKFQGGVTMTRDTSISTAYMDLNRLTSDDTAVYYCTRLPPNRAAPGWWFDPWGQGTLVTVSS VL: EIVLTQSPGTLSLSPGERATLSCRASQSVSSSYLAWYQQKPGQAPRLLIYGASNRATGIPDRFSGSGSGTDFTLTISRLEPEDFAVYYCQQYGAFGQGTKVEIK | binds
G001_gp1_V06_VRC01c_2021-0028 (antibody, V domains shown) VH: not shown VL: EIVLTQSPGTLSLSPGERATLSCRASQSVSGSYLAWYQQKPGQAPRLLIYGSSSRATGIPDRFSGSGSGTDFTLTISRLEPEDFAVYYCQQYETFGQGTKVEIK | binds
G001_gp1_V06_VRC01c_2021-0026 (antibody, V domains shown) VH: not shown VL: EIVLTQSPGTLSLSPGERATLSCRACQSVSSSYLAWYQQKPGQAPRLLIYGASSRATGIPDRFSGSGSGTDFTLTISRLEPEDFAVYYCQQYETFGQGTKLEIK | binds
G001_gp1_V06_VRC01c_88 (antibody, V domains shown) VH: QVQLVQSGAEVKKPGASVKVSCKASGYTFTGYYMHWVRQAPGQGLEWMGWINPNSGGTNYAQKFQGRVTMTRDTSISTAYMELRGLRSDDTAVYYCASLYYYVPGGWGQGTLVTVSS VL: EIVLTQSPGTLSLSPGERATLSCRASQSVSNSYLAWYQQKPGQAPRLLIYGASSRATGIPDRFSGSGSGTDFTLTISRLEPEDFAVYYCQQYVTFGPGTKVDIK | binds
G001_gp1_V06_VRC01c_2021-0019 (antibody, V domains shown) VH: QVQLVQSGAEVKKPGASVKVSCKASGYTFTGYYMHWVRQAPGQGLEWMGWINPNSGGTNYAQKFQDWVTMTRDTSISTAYMELRRLRSDDTAVYYCARPSYRSGWDMWYWGQGTLVTVSS VL: EIVLTQSPGTLSLSPGERATLSCRASQSVSSSYLAWYQQKPGQAPRLLIYGASSRATGIPDRFSGSGSGTDFTLTISRLEPEDFAVYYCQQYEGFGPGTKVDIK | binds
G001_gp1_V06_VRC01c_2021-0011 (antibody, V domains shown) VH: QVQLVQSGAEVKKPGASVKVSCKASGYTFTGYYLHWVRQAPGQGLEWMGWINPNSGGTNYAQKFQGWVTMTRDTSISTAYMELSRLRSDDTAVYYCAVKDLDTMVRGGAFVFWGQGTMVTVSS VL: DIQLTQSPSFLSASVGDRVTITCRASQGISSYLAWYQQKPGKAPKLLIYAASTLQSGVPSRFSGSGSGTEFTLTISSLQPEDFATYYCQQLNSFGGGTKVEIK | binds
G001_gp1_V06_VRC01c_2021-0023 (antibody, V domains shown) VH: QVQLVQSGAEVKKPGASVKVSCKASGYTFTDYYIHWVRQAPGQGLEWMGWINPNSGGTNYAQKFQDWVTMTRDTSITTAYMELSRLRSDDTAVYYCARGVRYSSSWYFGYWGQGTLVTVSS VL: QSALTQPASVSGSPGQSITISCTGTSSDVGGYNYVSWYQQHPGKAPKLMIYDVSNRPSGVSNRFSGSKSGNTASLTISGLQTEDEADYYCSSYEVFGTGTKVTVL | binds
G001_gp1_V06_VRC01c_86 (antibody, V domains shown) VH: not shown VL: QSALTQPPSASGSPGQSVTISCTGTSSDVGGYNYVSWYQQHPGKAPKLMIYEVSKRPSGVPDRFSGSKSGNTASLTVSGLQPEDEADYYCSSYEVFGTGTRVTVL | binds
G001_gp1_V06_VRC01c_79 (antibody, V domains shown) VH: not shown VL: EIVLTQSPGTLSLSPGERATLSCRASQSSSHLAWYQQKHGQAPRLLIYGASSRATGIPDRFSGSGSGTDFTLTISRLEPEDFAVYHCQQYETFGQGTKVEIK | binds
G001_gp1_V06_VRC01c_2021-0012 (antibody, V domains shown) VH: not shown VL: EIVMTQSPATLSVSPGERATLSCRASQSFSSNLAWYQQKSGQAPRLLIYGASTRATGIPARFSGSGSGTEFTLTISSLQSEDFAVYYCQQYHTFGPGTKVDIK | binds
G001_gp1_V06_VRC01c_87 (antibody, V domains shown) VH: not shown VL: EIVMTQSPATLSVSPGERATLSCRASQSVSSNLAWYQQKPGQAPRLLIYGASTRATGIPARFSGSGSGTEFTLTISSLQSEDFAVYYCQQYETFGQGTKVEIK | binds
G001_gp1_V06_VRC01c_2021-0022 (antibody, V domains shown) VH: not shown VL: EIVMTQSPATLSVSPGERATLSCRASQSVSSNLAWYQQKPGQAPRLLIYGASTRATGIPARFSGSGSGTEFTLTISSLQSEDFAVYYCQQYNNFGQGTRLEIK | binds
G001_gp1_V07_VRC01c_105 (antibody, V domains shown) VH: not shown VL: EIVMTQSPATLSVSPGERATLSCRASQSVSSNLAWYQQKPGQAPRLLIYGASTRATGIPARFSGSGSGTEFTLTISSLQSEDFAVYYCQQYNIFGQGTKLEIK | binds
G001_gp1_V06_VRC01c_81 (antibody, V domains shown) VH: not shown VL: EIVMTQSPATLCVSPGERATLSCRASQSVSSNLAWYQQKPGQAPRLLIYGASTRATGIPARFSGSGSGTEFTLTISSLQSEDFAVYYCQQYNNFGQGTKVEIK | binds
G001_gp1_V06_VRC01c_2021-0014 (antibody, V domains shown) VH: not shown VL: EIVMTQSPATLSVSPGERATLSCRASQSVSSNLAWYQQKPGQAPRLLIYGASTRATGIPARFSGSGSGTEFTLTISSLQSEDFAVYYCQQYGTFGQGTKVEIK | binds
G001_gp1_V06_VRC01c_82 (antibody, V domains shown) VH: not shown VL: EIVMTQSPATLSVSPGERATLSCRASQSVSSNLAWYQQKPGQAPRLLIYGASTRATGIPARFSGSGSGTEFTLTISSLQSEDFAVYYCQQYETFGGGTKVEIK | binds
G001_gp1_V06_VRC01c_2021-0027 (antibody, V domains shown) VH: not shown VL: QSVLTQPPSVSGAPGQRVTISCTGSSSNIGAGYDVHWYQQLPGTAPKLLIYGNSNRPSGVPDRFSGSKSGTSASLAITGLQAEDEADYYCQSYEVFGGGTKLTVL | binds
G001_gp1_V06_VRC01c_2021-0020 (antibody, V domains shown) VH: not shown VL: DIQMTQSPSSLSASVGDRVTITCQASQDISNFLNWFQQKPGKAPKLLIYDASNLETGVPSRFSGSGSGTDFTFTISSLQPEDIATYYCQQYDNFGPGTKVDIK | binds
G001_gp1_V07_VRC01c_107 (antibody, V domains shown) VH: QVQLVQSGAEVKKPGASVKVSCKASGYTFTGYYMHWVRQAPGQGLEWMGWINPSSGGTNYAQKFQGRVTMTRDTSISTAYMELDWLRSDDTAVYYCARVRGATTFDYWGQGTLVTVSS VL: DIQMTQSPSSLSASVGDRVTITCQASQDISNYLHWYQQKPGKAPKLLIYDASKLETGVPSRFSGSGSGTDFTFTISSLQPEDIATYYCQQYNTFGQGTKLQIK | binds
G001_gp1_V06_VRC01c_83 (antibody, V domains shown) VH: not shown VL: DIQMTQSPSSLSASVGDRVTITCQASQDINNYLNWYQQKPGKAPKLLIYDASNLETGVPSRFSGSGSGTDFTFTISSLQPEDIATYYCQQYEAFGQGTKVEIK | binds
G001_gp1_V06_VRC01c_2021-0021 (antibody, V domains shown) VH: QVQLVQSGAEVKKPGASVKVSCKASGYTFTGDYMHWVRQAPGQGLEWMGWINPNSGGTNYAQKFEGWVTMTRDTSISTAYMELSRLRSDDTAVYYCARTPYSSSWLFNYWGQGTLVTVSS VL: DIQMTQSPSSLSASVGDRVTITCQASQDISNFLNWYQQKPGKAPKLLIYDASNLETGVPSRFSGSGSGTNFTFTISSLQPEDIATYYCQQYDLFGPGTKVDIK | binds
G001_gp1_V07_VRC01c_101 (antibody, V domains shown) VH: QVQLVQSGAEVKKPGASVKVSCKASRDTFTGYYMHWVRQAPGQGLEWMGWINPNSGGTNYAQKFQDGVTLTRDTSISTAYMELSRLRSDDTAVYYCARTEYYSQRGWAFDIWGQGTMVTVSS VL: DIQMTQSPSSLSASVGDRVTITCQASQDISNHLNWYQQKPGKAPKLLIYDASNLETGVPLRFSGSGSGTDFTFTISSLQPEDIATYYCQQYDNFGPGTKVDIK | binds
G001_gp1_V06_VRC01c_2021-0015 (antibody, V domains shown) VH: not shown VL: DIQMTQSPSTLSASVGDRVTITCRASQSISSWLAWYQQKPGKAPKLLIYKASSLESGVPSRFSGSGSGTEFTLTISSLQPDDFATYYCQQWETFGQGTKVEIK | binds
G001_gp1_V07_VRC01c_102 (antibody, V domains shown) VH: QVQLVQSGAEVKKPGASVKVSCKASGYTFTGYYMHWVRQAPGQGLEWMGWINPISGGTNYAQEFQDWVTMTRDTSISTAYMELSRLRSDDTAVYYCARHDSSENAFDIWGQGTMVTVSS VL: DIQMTQSPSTLSASVGDRVTITCRASQSTSRWLAWYQQKPGKAPKLLIYKASSLESGVPSRFSGSGSGTEFTLTISSLQPDDFATYYCQQYTSFGQGTKLEIK | binds
G001_gp1_V06_VRC01c_2021-0030 (antibody, V domains shown) VH: not shown VL: DIQMTQSPSTLSASVGDRVTITCRASQSISSWLAWYQQKPGKAPKLLIYKASSLESGVPSRFSGSGSGTEFTLTISSLQPDDFATYYCQQYATFGQGTKVEIK | binds
G001_gp1_V06_VRC01c_2021-0018 (antibody, V domains shown) VH: not shown VL: DIQMTQSPSTLSASVGDRVTITCRASQSISSWLAWYQQKPGKAPKLLIYKASSLESGVPSRFSGSGSGTEFTLTISSLQPDDFATYYCQQYETFGQGTKVEIK | binds
